B1: Isoform 2 of Bardet-Biedl syndrome 7 protein (Homo sapiens), Q8IWZ6-2 (parent)
chain: MDLILNRMDYLQVGVTSQKTMKLIPASRHRATQKVVIGDHDGVVMCFGMKKGEAAAVFKTLPGPKIARLELGGVINTPQEKIFIAAASEIRGFTKRGKQFLSFETNLTESIKAMHISGSDLFLSASYIYNHYCDCKDQHYYLSGDKINDVICLPVERLSRITPVLACQDRVLRVLQGSDVMYAVEVPGPPTVLALHNGNGGDSGEDLLFGTSDGKLALIQITTSKPVRKWEIQNEKKRGGILCIDSFDIVGDGVKDLLVGRDDGMVEVYSFDNANEPVLRFDQMLSESVTSIQGGCVGKDSYDEIVVSTYSGWVTGLTTEPIHKESGPGEELKINQEMQNKISSLRNELEHLQYKVLQERENYQQSSQSSKAKSAVPSFGINDKFTLNKDDASYSLILEVQTAIDNVLIQSDVPIDLLDVDKNSAVVSFSSCDSESNDNFLLATYRCQADTTRLELKIRSIEGQYGTLQAYVTPRIQPKTCQVRQYHIKPLSLHQRTHFIDHDRPMNTLTLTGQFSFAEVHSWVVFCLPEVPEKPPAGECVTFYFQNTFLDTQLESTYRKGEGVFKSDNISTISILKDVLSKEATKRKINLNISYEINEVSVKHTLKLIHPKLEYQLLLAKKVQLIDALKELQIHEGNTNFLIPEYHCILEEADHLQEEYKKQPAHLERLYG
partner: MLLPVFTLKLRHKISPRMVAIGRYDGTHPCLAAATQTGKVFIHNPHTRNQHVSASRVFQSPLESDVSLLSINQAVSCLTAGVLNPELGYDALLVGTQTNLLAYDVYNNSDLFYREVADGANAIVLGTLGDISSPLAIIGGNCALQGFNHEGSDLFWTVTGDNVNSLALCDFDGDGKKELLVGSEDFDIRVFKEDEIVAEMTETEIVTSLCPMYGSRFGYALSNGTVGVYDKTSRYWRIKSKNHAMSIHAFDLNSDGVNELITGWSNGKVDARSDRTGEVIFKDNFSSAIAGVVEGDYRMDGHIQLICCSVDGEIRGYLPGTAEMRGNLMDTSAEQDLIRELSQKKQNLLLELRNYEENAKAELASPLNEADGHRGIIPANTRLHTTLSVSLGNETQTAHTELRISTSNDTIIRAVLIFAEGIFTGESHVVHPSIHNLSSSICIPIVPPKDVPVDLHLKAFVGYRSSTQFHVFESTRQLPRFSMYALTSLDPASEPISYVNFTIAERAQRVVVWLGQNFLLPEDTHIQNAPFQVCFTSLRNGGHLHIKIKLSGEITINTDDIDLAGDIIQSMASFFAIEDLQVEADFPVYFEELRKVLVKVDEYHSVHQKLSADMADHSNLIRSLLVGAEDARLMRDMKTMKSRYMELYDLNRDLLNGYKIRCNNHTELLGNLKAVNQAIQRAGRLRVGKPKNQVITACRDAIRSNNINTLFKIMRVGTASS

This experiment covers variants of B1. The following applies: with bbs2_human BBS2, Q9BXC9.
Regarding L387K, the “effect of a mutation on the interaction” value was “with no effect”. For L387A, the “effect of a mutation on the interaction” value was “with no effect”.

In the case of L387E, the “effect of a mutation on the interaction” value is recorded as “with no effect”. The same measure for E359K: “with no effect”; for E359A: “with no effect”; for Y354A: “with no effect”. The same measure for Y354E: “with no effect”; for Y354K: “with no effect”. The same measure for K333E: “with no effect”; for K333A: “with no effect”; for S344K: “with no effect”. On to S344E, for which the “effect of a mutation on the interaction” value is listed as “with no effect”.

On to S344A, for which the “effect of a mutation on the interaction” value is “with no effect”. In the case of V356E, the “effect of a mutation on the interaction” value is “with no effect”. V356A: the “effect of a mutation on the interaction” value is “disrupting interaction strength”.

Consider V356K, for which the “effect of a mutation on the interaction” value was “with no effect”. With E330A, the “effect of a mutation on the interaction” value is recorded as “with no effect”. In the case of E330K, the “effect of a mutation on the interaction” value is listed as “with no effect”. With Q368A, the “effect of a mutation on the interaction” value is “with no effect”. On to Q368E, for which the “effect of a mutation on the interaction” value is given as “with no effect”. Take Q368K: the “effect of a mutation on the interaction” value is given as “with no effect”. The same measure for N362K: “with no effect”; for N362E: “with no effect”; for N362A: “with no effect”. Turning to V376I, the “effect of a mutation on the interaction” value is listed as “disrupting interaction strength”. In the case of V376K, the “effect of a mutation on the interaction” value is reported as “with no effect”. The same measure for V376E: “with no effect”; for V376A: “with no effect”. Turning to S366K, the “effect of a mutation on the interaction” value is given as “with no effect”. For S366E, the “effect of a mutation on the interaction” value was “with no effect”. The same measure for S366A: “with no effect”; for I381A: “with no effect”.

I381K: the “effect of a mutation on the interaction” value is listed as “with no effect”. As for I381E, the “effect of a mutation on the interaction” value is reported as “with no effect”. Consider L357E, for which the “effect of a mutation on the interaction” value is given as “with no effect”. As to L357K, the “effect of a mutation on the interaction” value was “with no effect”. For the variant L357A, the “effect of a mutation on the interaction” value is given as “with no effect”.

As to K384A, the “effect of a mutation on the interaction” value is given as “with no effect”. For the variant K384E, the “effect of a mutation on the interaction” value is “with no effect”. For S369E, the “effect of a mutation on the interaction” value is recorded as “with no effect”.

S369A: the “effect of a mutation on the interaction” value is “with no effect”. The same measure for S369K: “with no effect”; for R360E: “with no effect”.

On to R360K, for which the “effect of a mutation on the interaction” value is on record as “with no effect”. As for R360A, the “effect of a mutation on the interaction” value is given as “with no effect”. F385K: the “effect of a mutation on the interaction” value is given as “with no effect”.

Take F385A: the “effect of a mutation on the interaction” value was “with no effect”. The same measure for F385E: “with no effect”; for E350K: “with no effect”. For the variant E350A, the “effect of a mutation on the interaction” value is given as “with no effect”. As for L332A, the “effect of a mutation on the interaction” value is on record as “with no effect”.

L332E: the “effect of a mutation on the interaction” value is “with no effect”. Consider L332K, for which the “effect of a mutation on the interaction” value is reported as “with no effect”.

For the variant R346E, the “effect of a mutation on the interaction” value was “with no effect”.

With R346K, the “effect of a mutation on the interaction” value is listed as “with no effect”. As to R346A, the “effect of a mutation on the interaction” value is listed as “with no effect”. The same measure for N347A: “with no effect”; for N347E: “with no effect”. Turning to N347K, the “effect of a mutation on the interaction” value is reported as “with no effect”.

Consider Q339K, for which the “effect of a mutation on the interaction” value is reported as “with no effect”.

On to Q339E, for which the “effect of a mutation on the interaction” value is given as “with no effect”. Q339A: the “effect of a mutation on the interaction” value was “with no effect”. Turning to S343E, the “effect of a mutation on the interaction” value is listed as “with no effect”.

As to S343K, the “effect of a mutation on the interaction” value was “with no effect”. As to S343A, the “effect of a mutation on the interaction” value is recorded as “with no effect”. As for M338A, the “effect of a mutation on the interaction” value was “with no effect”. In the case of M338E, the “effect of a mutation on the interaction” value was “with no effect”. As for M338K, the “effect of a mutation on the interaction” value is on record as “with no effect”. The same measure for Q365A: “with no effect”; for Q365K: “with no effect”. The same measure for Q365E: “with no effect”. On to S370K, for which the “effect of a mutation on the interaction” value is “with no effect”. As to S370A, the “effect of a mutation on the interaction” value is on record as “with no effect”. The same measure for S370E: “with no effect”. The same measure for K341E: “with no effect”.

Consider K341A, for which the “effect of a mutation on the interaction” value is listed as “with no effect”. With L349A, the “effect of a mutation on the interaction” value is “with no effect”. L349E: the “effect of a mutation on the interaction” value was “with no effect”. As for L349K, the “effect of a mutation on the interaction” value is “with no effect”. As to E361K, the “effect of a mutation on the interaction” value is recorded as “with no effect”. As for E361A, the “effect of a mutation on the interaction” value is “with no effect”. As for P377A, the “effect of a mutation on the interaction” value is “with no effect”. On to P377K, for which the “effect of a mutation on the interaction” value is given as “with no effect”. Take P377E: the “effect of a mutation on the interaction” value is reported as “with no effect”. Take G380K: the “effect of a mutation on the interaction” value is given as “with no effect”. As for G380E, the “effect of a mutation on the interaction” value is on record as “with no effect”. Take G380A: the “effect of a mutation on the interaction” value is listed as “with no effect”. The same measure for S326E: “with no effect”; for S326A: “with no effect”; for S326K: “with no effect”. For the variant T386K, the “effect of a mutation on the interaction” value is “with no effect”. The same measure for T386E: “with no effect”; for T386A: “with no effect”.

For the origin of these results see IntAct's records for PubMed 29039417.
